The text below walks through data of the Human Domainome abundance scans (Beltran et al. 2025).

To fix the notation:
B1: Tyrosine-protein kinase Lck, residues 63 to 120; numbered along this chain, P06239 (parent)
chain: DNLVIALHSYEPSHDGDLGFEKGEQLRILEQSGEWWKAQSLTTGQEGFIPFNFVAKAN

± gives the uncertainty stated by the source.

The variants in this series derive from B1. The experiment in a line: abundance fitness (aPCA) (normalised: wild type 0, dead -1); higher = more abundant; growth selection in yeast, the domain comes from the species named. Particulars: Homo sapiens.
As to G16E, the abundance fitness was -0.247 ± 0.1.
Regarding G16V, the abundance fitness was -0.328 ± 0.081.
Turning to G16F, the abundance fitness was -0.309 ± 0.14.
The value for G16P was -1.03 ± 0.23.
The same measure for G16M: -0.259 ± 0.11; for G16A: -0.366 ± 0.09; for G16T: -0.152 ± 0.11.
As for G16S, the abundance fitness is -0.174 ± 0.074.
The value for G16K was -0.362 ± 0.13; that for G16Y was -0.218 ± 0.18.
The same measure for G16H: -0.114 ± 0.12; for G16I: -0.322 ± 0.15.
For the variant G16C, the abundance fitness was -0.241 ± 0.097.
The same measure for E21Y: -0.415 ± 0.23; for E21A: -0.062 ± 0.086; for E21F: -0.515 ± 0.21.
The value for E21G was -0.349 ± 0.075; that for E21Q was 0.007 ± 0.13.
The same measure for E21V: 0.022 ± 0.081; for E21M: -0.134 ± 0.12.
For E21L, the abundance fitness is -0.11 ± 0.1.
As to E21T, the abundance fitness is -0.129 ± 0.13.
Consider E21W, for which the abundance fitness is -0.481 ± 0.11.
Regarding E21N, the abundance fitness was -0.248 ± 0.2.
The value for E21R was -0.052 ± 0.08.
The value for E21H was -0.001 ± 0.3; that for E21S was -0.042 ± 0.13; that for E21P was -0.914 ± 0.18.
The value for E21D was -0.205 ± 0.19.
Regarding Q25T, the abundance fitness was found to be 0.078 ± 0.13.
The value for Q25H was -0.143 ± 0.27.
As for Q25M, the abundance fitness is 0.022 ± 0.13.
The same measure for Q25V: -0.017 ± 0.073.
The value for Q25A was -0.165 ± 0.089; that for Q25W was -0.169 ± 0.1; that for Q25N was 0.069 ± 0.21.
The same measure for Q25K: 0.09 ± 0.12.
On to Q25S, for which the abundance fitness is -0.053 ± 0.088.
Q25P: the abundance fitness was -0.276 ± 0.12.
The same measure for Q25C: -0.096 ± 0.13; for Q25I: -0.181 ± 0.13; for Q25Y: -0.047 ± 0.18.
In the case of Q25E, the abundance fitness was -0.021 ± 0.11.
With Q25D, the abundance fitness is -0.357 ± 0.14.
The value for E24D was -0.095 ± 0.11.
In the case of E24W, the abundance fitness is -0.704 ± 0.13.
The same measure for E24I: -0.758 ± 0.29; for E24Y: -0.829 ± 0.29.
The value for E24T was -0.754 ± 0.16.
The value for E24P was -0.891 ± 0.15; that for E24V was -0.835 ± 0.1.
On to E24M, for which the abundance fitness is -0.673 ± 0.15.
The same measure for E24H: -0.774 ± 0.15; for E24S: -0.506 ± 0.094.
The same measure for E24C: -0.628 ± 0.12; for E24F: -0.997 ± 0.24.
The value for E24N was -0.608 ± 0.29; that for E24R was -0.902 ± 0.12.
Take E24Q: the abundance fitness was -0.385 ± 0.13.
The same measure for E24K: -0.82 ± 0.16; for E24A: -0.357 ± 0.093; for E24L: -0.999 ± 0.13.
The same measure for E24G: -0.725 ± 0.076; for Y10D: -0.511 ± 0.14; for Y10F: -0.241 ± 0.14.
The value for Y10L was -0.488 ± 0.092; that for Y10A was -0.671 ± 0.12; that for Y10H was -0.087 ± 0.16.
Regarding Y10I, the abundance fitness was -0.619 ± 0.24.
For the variant Y10T, the abundance fitness was -0.604 ± 0.12.
Regarding Y10N, the abundance fitness is -0.587 ± 0.19.
The value for Y10R was -0.289 ± 0.079.
The value for Y10M was -0.444 ± 0.15.
As to Y10C, the abundance fitness is -0.415 ± 0.12.
In the case of Y10W, the abundance fitness is -0.019 ± 0.09.
The value for Y10V was -0.485 ± 0.1; that for Y10P was -0.673 ± 0.14.
The value for Y10G was -0.717 ± 0.086.
On to Y10S, for which the abundance fitness is -0.662 ± 0.098.
With Y10K, the abundance fitness is -0.113 ± 0.17.
Turning to D15M, the abundance fitness was -0.225 ± 0.12.
Take D15Q: the abundance fitness was -0.02 ± 0.14.
As to D15L, the abundance fitness was -0.106 ± 0.078.
Consider D15K, for which the abundance fitness amounted to 0.111 ± 0.12.
The same measure for D15V: -0.273 ± 0.098; for D15H: -0.071 ± 0.13.
The same measure for D15R: -0.053 ± 0.069.
In the case of D15A, the abundance fitness is -0.046 ± 0.11.
The same measure for D15T: -0.124 ± 0.15.
For D15F, the abundance fitness is -0.148 ± 0.18.
The value for D15Y was -0.071 ± 0.17.
Consider D15G, for which the abundance fitness is -0.196 ± 0.095.
The same measure for D15W: -0.461 ± 0.11; for D15P: -0.075 ± 0.11; for D15C: -0.196 ± 0.12.
The same measure for D15I: -0.225 ± 0.15.
The same measure for S13Y: -0.18 ± 0.11; for S13H: -0.174 ± 0.15; for S13A: -0.177 ± 0.11.
Take S13I: the abundance fitness is -0.215 ± 0.14.
For the variant S13D, the abundance fitness is -0.062 ± 0.12.
The same measure for S13C: -0.047 ± 0.1.
On to S13P, for which the abundance fitness is -0.358 ± 0.094.
The value for S13F was -0.412 ± 0.11; that for S13T was 0.047 ± 0.083.
The same measure for S13E: -0.096 ± 0.095; for S13M: -0.026 ± 0.13; for S13V: -0.097 ± 0.074.
The same measure for S13K: 0.171 ± 0.11; for S13G: -0.251 ± 0.07.
S13N: the abundance fitness is -0.061 ± 0.2.
The value for S13Q was -0.034 ± 0.12; that for E11C was -0.21 ± 0.12; that for E11H was -0.156 ± 0.18.
Consider E11A, for which the abundance fitness is -0.137 ± 0.085.
Regarding E11K, the abundance fitness was 0.206 ± 0.19.
On to E11Q, for which the abundance fitness was -0.199 ± 0.16.
The same measure for E11G: -0.431 ± 0.066.
On to E11Y, for which the abundance fitness was -0.363 ± 0.16.
The value for E11F was -0.214 ± 0.18; that for E11P was -0.409 ± 0.13.
For the variant E11T, the abundance fitness is 0.064 ± 0.12.
The value for E11D was -0.116 ± 0.12; that for E11W was -0.435 ± 0.11.
Turning to E11L, the abundance fitness is -0.164 ± 0.084.
Take E11S: the abundance fitness is -0.16 ± 0.11.
The same measure for E11M: -0.409 ± 0.14; for E11I: -0.177 ± 0.19; for E11V: -0.05 ± 0.08.
Turning to E11N, the abundance fitness was -0.171 ± 0.16.
With E11R, the abundance fitness was -0.145 ± 0.075.
The same measure for G19F: -0.567 ± 0.2; for G19C: -0.16 ± 0.11; for G19D: -0.648 ± 0.14.
The same measure for G19I: -0.538 ± 0.22; for G19V: -0.47 ± 0.085.
The same measure for G19E: -0.393 ± 0.11; for G19W: -0.823 ± 0.16.
G19M: the abundance fitness was -0.31 ± 0.12.
With G19P, the abundance fitness was -0.16 ± 0.14.
The same measure for G19K: -0.108 ± 0.14; for G19L: -0.604 ± 0.1; for G19H: -0.299 ± 0.13.
The value for G19R was -0.142 ± 0.078; that for G19Q was -0.256 ± 0.14.
The value for G19A was -0.039 ± 0.085; that for G19N was -0.397 ± 0.17.
For G19T, the abundance fitness is -0.375 ± 0.13.
The same measure for G19Y: -0.55 ± 0.2; for S9C: -0.25 ± 0.12.
On to S9A, for which the abundance fitness was -0.235 ± 0.12.
For the variant S9M, the abundance fitness is -0.473 ± 0.13.
In the case of S9F, the abundance fitness was -0.798 ± 0.13.
Consider S9Y, for which the abundance fitness was -0.619 ± 0.16.
For the variant S9Q, the abundance fitness is -0.276 ± 0.14.
Consider S9E, for which the abundance fitness was -0.218 ± 0.1.
S9K: the abundance fitness was found to be 0.017 ± 0.14.
The same measure for S9R: -0.11 ± 0.072; for S9W: -0.923 ± 0.15; for S9N: 0.045 ± 0.12.
S9I: the abundance fitness was -0.888 ± 0.2.
As to S9P, the abundance fitness was -0.166 ± 0.12.
Regarding S9V, the abundance fitness was -0.676 ± 0.11.
Regarding S9G, the abundance fitness is -0.116 ± 0.077.
The same measure for S9L: -0.84 ± 0.12.
The same measure for S9H: -0.254 ± 0.15; for S9T: -0.046 ± 0.12.
